For experiment [1], the target named is tektin A (S. purpuratus (endogenous in sperm flagella)). The experiment can be described thus: co-sedimentation; Ribbons extracted with 0.5% Sarkosyl and urea (1-3 M; 1.75 M for the stoichiometry) in 10TEAD; the insoluble tektin filaments analysed by SDS-PAGE densitometry (Serva Blue) and immunoblotting.
Experiment [2] concerns the target tektin B (S. purpuratus (endogenous in sperm flagella)). The experiment is described as above.

For 2 substances, stoichiometry N results are on record in PMC4067180.

The substance tektin B (natural protein) had a stoichiometry N in experiment [1] of 1.
tektin C (natural protein): the stoichiometry N in experiment [2] and in experiment [1] was 1 in each case.
